From US20150018528A1 (Novo Nordisk, published 2015) come the findings set out here.

Some results are limits rather than exact numbers.

The target of assay [1] is T1, recombinant human PGLYRP1 generated in-house (SEQ ID NO: 1) (human, UniProt O75594 22-196).
T1 sequence: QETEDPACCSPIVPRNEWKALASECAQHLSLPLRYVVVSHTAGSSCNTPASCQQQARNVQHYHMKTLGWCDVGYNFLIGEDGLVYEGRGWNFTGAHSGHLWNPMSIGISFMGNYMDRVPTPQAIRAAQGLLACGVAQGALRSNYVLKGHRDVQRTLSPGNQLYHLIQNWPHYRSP
Briefly: direct ELISA on PGLYRP1 protein (primary screening of hybridoma supernatants). Background: In an ELISA, binding on a coated surface is turned into a signal by an enzyme label.

Assay [2] addresses T2, Type II PGLYRP2 on HEK293-6E cells (human, UniProt Q96PD5 22-576).
T2 construct: also called hPGLYRP2; PGRP-L
T2 sequence: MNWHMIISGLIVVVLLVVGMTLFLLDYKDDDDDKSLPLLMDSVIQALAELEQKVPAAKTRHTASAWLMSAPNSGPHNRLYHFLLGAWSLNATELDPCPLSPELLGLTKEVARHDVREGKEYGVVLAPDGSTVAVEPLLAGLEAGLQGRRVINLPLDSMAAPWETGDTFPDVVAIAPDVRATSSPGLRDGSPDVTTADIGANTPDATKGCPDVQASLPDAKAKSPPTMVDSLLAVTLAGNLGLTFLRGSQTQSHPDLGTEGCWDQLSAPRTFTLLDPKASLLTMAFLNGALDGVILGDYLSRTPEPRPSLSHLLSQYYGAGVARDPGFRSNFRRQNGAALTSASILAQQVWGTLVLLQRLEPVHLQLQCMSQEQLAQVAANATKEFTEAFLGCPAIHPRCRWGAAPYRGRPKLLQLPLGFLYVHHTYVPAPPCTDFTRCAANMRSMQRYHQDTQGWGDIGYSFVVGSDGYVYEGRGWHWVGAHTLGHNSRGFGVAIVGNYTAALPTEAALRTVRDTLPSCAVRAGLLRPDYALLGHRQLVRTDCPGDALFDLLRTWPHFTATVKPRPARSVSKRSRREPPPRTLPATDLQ
Nature of the assay: flow cytometry on transfected HEK293-6E cells. The method, then: (§1) 51.2090KZ, BD Biosciences, San Jose Calif., USA) for intracellular staining or 2% FBS/PBS for surface staining: cell pellets were resuspended in a 96-well round bottom plate (to begin with: 160,000 cells/well) with 200 μl cytofix/perm buffer for 15 minutes at 22 C., washed twice with 200 μl 1× PermWash Buffer (diluted 10× in DiH20), stained with 50 μl probe diluted to 5 µg/ml in 1× PermWash buffer, incubated for 1 hour at 4 C., cells were then washed with 200 μl 1× PermWash Buffer, a secondary probe was added in 50 μl 1× PermWash buffer, cells were incubated at 4 C. for 30 minutes, washed twice with 200 μl 1× PermWash Buffer, pellets were resuspended in 50 μl 1:1 PBS diluted CytoFix (BD:554655, San Jose, Calif.), incubated for 5 minutes at 22 C., 150 μl PBS/2% FBS was added, centrifuged for 5 minutes at 300 g, washed 1× with 200 μl PBS/2% FBS and resuspended in 100 μl PBS/2% FBS. Binding was analysed using FACS on LSRII (BD, San Jose Calif., USA).

For assay [3], the target named is T3, Type II PGLYRP4 on HEK293-6E cells (human, UniProt Q96LB8 18-373).
T3 construct: also called hPGLYRP4; PGRP-1b
T3 sequence: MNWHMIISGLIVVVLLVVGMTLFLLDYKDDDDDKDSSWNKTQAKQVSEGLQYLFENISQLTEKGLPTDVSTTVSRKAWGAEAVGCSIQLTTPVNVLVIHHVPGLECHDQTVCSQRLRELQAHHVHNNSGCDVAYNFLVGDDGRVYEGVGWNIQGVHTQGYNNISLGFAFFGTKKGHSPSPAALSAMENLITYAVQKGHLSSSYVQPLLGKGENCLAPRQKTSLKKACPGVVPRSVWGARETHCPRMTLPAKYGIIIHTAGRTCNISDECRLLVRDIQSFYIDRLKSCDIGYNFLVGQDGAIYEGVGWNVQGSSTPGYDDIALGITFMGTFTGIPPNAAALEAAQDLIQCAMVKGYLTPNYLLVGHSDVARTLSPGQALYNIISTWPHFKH
Briefly: flow cytometry on transfected HEK293-6E cells. The method, then: as §1
In general terms: Flow cytometry measures light scatter and fluorescence of single cells or particles in a stream.

Assay [4] has as its target T4, endogenous human PGLYRP1 (neutrophils; RA synovial fluid) (human, UniProt O75594 22-196).
T4 construct: also called PGRP-S; neutrophil-derived PGLYRP1
T4 sequence (looked up): T1 sequence
Nature of the assay: crosslinking, immunoprecipitation and LC/MS/MS from human neutrophils; CD83-Fc as control bait.

Assay [5] addresses T5, Type II muPGLYRP1 on HEK293-6E cells (mouse, UniProt O88593 19-182).
T5 construct: whole, on cells; also called mouse PGLYRP1; not shown: Type II membrane anchor; construct is not described in the text
T5 sequence (looked up): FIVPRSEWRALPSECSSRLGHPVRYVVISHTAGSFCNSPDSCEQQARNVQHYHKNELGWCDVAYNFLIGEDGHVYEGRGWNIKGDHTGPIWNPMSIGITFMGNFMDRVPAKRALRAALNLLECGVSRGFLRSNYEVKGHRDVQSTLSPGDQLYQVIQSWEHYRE
Briefly: flow cytometry on transfected HEK293-6E cells. The method, then:
as §1

B1: M-hPGRPS-2F5 (antibody, V domains shown)
VH: EVQLVESGGGLVKPGGSLKLSCAASGFSFSDYYMYWVRQTPEKRLEWVAAISDDSTYTYYPDSVKGRFTISRDNAKNNLYLQMSSLKSEDTAMYYCARGGYGNLYAMDYWGQGTSVTVSS
VL: QIVLTQSPAIMSASLGERVTMTCTASSSVSSSYLHWYQQKPGSSPKLWIYSTSNLASGVPARFSGSGSGTSYSLTISSMEAEDAATYYCHQYHRSPFTFGSGTKLEIKR
notes: Tested as hybridoma supernatant
Regarding B1, in assay [1], the binding result is on record as “binds”.

B2: huTREML2.Fc dimer (C0247) (Fc fusion)
chain: GPSADSVYTKVRLLEGETLSVQCSYKGYKNRVEGKVWCKIRKKKCEPGFARVWVKGPRYLLQDDAQAKVVNITMVALKLQDSGRYWCMRNTSGILYPLMGFQLDVSPAPQTERNIPFTHLDNILKSGTVTTGQAPTSGPDAPFTTGVMVFTPGLITLPRLLASTRPASKTGYSFTATSTTSQGPRRTMGSQTVTASPSNARDSSAGPESISTKSGDLSTRSPTTGLCLTSRSLLNRLPSMPSIRHQDVYSGTEPKSSDKTHTCPPCPAPEAEGAPSVFLFPPKPKDTLMISRTPEVTCVVVDVSHEDPEVKFNWYVDGVEVHNAKTKPREEQYNSTYRVVSVLTVLHQDWLNGKEYKCKVSNKALPSSIEKTISKAKGQPREPQVYTLPPSREEMTKNQVSLTCLVKGFYPSDIAVEWESNGQPENNYKTTPPVLDSDGSFFLYSKLTVDKSRWQQGNVFSCSVMHEALHNHYTQKSLSLSPGK
notes: Entry may hold the hCD33 leader; code tied by the name of the construct only; also called huTremL2.Fc (C0247); hTREML2-Fc6mut dimer
Take B2: the “ratio of MFI of probe staining over negative control staining” value (shortened to “ratio of MFI of probe staining”) in assay [2] and in assay [3] was less than 1 ratio throughout.

B3: hCD83-G4Sx3-hCD83/Fc6mut (CD83-Fc, hCD83 tetramer) (Fc fusion)
chain: TPEVKVACSEDVDLPCTAPWDPQVPYTVSWVKLLEGGEERMETPQEDHLRGQHYHQKGQNGSFDAPNERPYSLKIRNTTSCNSGTYRCTLQDPDGQRNLSGKVILRVTGCPAQRKEETFKKYRAEGTGGGGSGGGGSGGGGSTPEVKVACSEDVDLPCTAPWDPQVPYTVSWVKLLEGGEERMETPQEDHLRGQHYHQKGQNGSFDAPNERPYSLKIRNTTSCNSGTYRCTLQDPDGQRNLSGKVILRVTGCPAQRKEETFKKYRAEGALAGTEPKSSDKTHTCPPCPAPEAEGAPSVFLFPPKPKDTLMISRTPEVTCVVVDVSHEDPEVKFNWYVDGVEVHNAKTKPREEQYNSTYRVVSVLTVLHQDWLNGKEYKCKVSNKALPSSIEKTISKAKGQPREPQVYTLPPSREEMTKNQVSLTCLVKGFYPSDIAVEWESNGQPENNYKTTPPVLDSDGSFFLYSKLTVDKSRWQQGNVFSCSVMHEALHNHYTQKSLSLSPGK
notes: also called control construct (CD83); control protein
For B3, the binding result in assay [4] was “no binding (tested: 100 µg/ml)”.

B4: M-hPGRPS-2F7 (antibody, V domains shown)
VH: EVQLQQSGPEVVKPGTSVKMSCKASGYTFTNYVMHWVRQKPGQGLEWVGWINPFNDGTNYNENFKNKATLTSDKSSSTAYMELSSLTSEDSAVYYCARSGFITTLIEDYWGQGTTLTVSS
VL: NIVMTQSPKYMSMSVGERVTLTCKASESVGSFVSWYQQKADQSPNLLIYGASNRYTGVPDRFTGSGSARDFTLTISSVQAKDLAEYYCGQYYTHPTFGAGTKLELKR
notes: as for B1
In the case of B4, the binding result in assay [1] is on record as “binds”.

B5: huTREML1.Fc dimer (C0246) (Fc fusion)
chain: QGIVGSLPEVLQAPVGSSILVQCHYRLQDVKAQKVWCRFLPEGCQPLVSSAVDRRAPAGRRTFLTDLGGGLLQVEMVTLQEEDAGEYGCMVDGARGPQILHRVSLNILPPEEEEETHKIGSLAENAFSDPAGSANPLEPSQDEKSIPGTEPKSSDKTHTCPPCPAPEAEGAPSVFLFPPKPKDTLMISRTPEVTCVVVDVSHEDPEVKFNWYVDGVEVHNAKTKPREEQYNSTYRVVSVLTVLHQDWLNGKEYKCKVSNKALPSSIEKTISKAKGQPREPQVYTLPPSREEMTKNQVSLTCLVKGFYPSDIAVEWESNGQPENNYKTTPPVLDSDGSFFLYSKLTVDKSRWQQGNVFSCSVMHEALHNHYTQKSLSLSPGK
notes: Entry may hold the hCD33 leader; code tied by the name of the construct only; also called huTremL1.Fc (C0246); hTREML1-Fc6mut dimer
In the case of B5, the “ratio of MFI of probe staining” value in assay [2], in assay [3] and in assay [5] was less than 1 ratio throughout.

B6: huTREM2.Fc dimer (C0248) (Fc fusion)
chain: HNTTVFQGVAGQSLQVSCPYDSMKHWGRRKAWCRQLGEKGPCQRVVSTHNLWLLSFLRRWNGSTAITDDTLGGTLTITLRNLQPHDAGLYQCQSLHGSEADTLRKVLVEVLADPLDHRDAGDLWFPGESESFEDAHVEHSISRSLLEGEIPFPPTSGTEPKSSDKTHTCPPCPAPEAEGAPSVFLFPPKPKDTLMISRTPEVTCVVVDVSHEDPEVKFNWYVDGVEVHNAKTKPREEQYNSTYRVVSVLTVLHQDWLNGKEYKCKVSNKALPSSIEKTISKAKGQPREPQVYTLPPSREEMTKNQVSLTCLVKGFYPSDIAVEWESNGQPENNYKTTPPVLDSDGSFFLYSKLTVDKSRWQQGNVFSCSVMHEALHNHYTQKSLSLSPGK
notes: Entry may hold the hCD33 leader; code tied by the name of the construct only; also called huTrem2.Fc (C0248); hTREM2-Fc6mut dimer
B6: the “ratio of MFI of probe staining” value in assay [2] and in assay [3] was less than 1 ratio in each case.
